Where a chain is given by its changes, count along the chain named. Values belong to the binder of their own block, whether it stands above or below them.
How the values were obtained:
[1] = biological target: T1, human FGFR1b-IIIb extracellular domain with a HIS tag (human); test: SPR (BIAcore), SEEDbody format; target IIIb by paragraph 74 and paragraph 125, the table's title says IIIc
T1 construct: also called huFGFR1b-IIIb; hFGFR1b-IIIb
T1 chain: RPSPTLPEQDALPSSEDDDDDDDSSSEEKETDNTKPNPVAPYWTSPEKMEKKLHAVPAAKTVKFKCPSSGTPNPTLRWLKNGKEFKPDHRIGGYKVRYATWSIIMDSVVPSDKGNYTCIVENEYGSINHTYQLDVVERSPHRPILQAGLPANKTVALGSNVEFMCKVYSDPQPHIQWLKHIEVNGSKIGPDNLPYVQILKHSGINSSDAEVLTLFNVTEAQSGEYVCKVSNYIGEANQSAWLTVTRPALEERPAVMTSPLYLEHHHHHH
Description: (§1) Binding affinities of anti-FGFR1 antibodies to FGFR1 were measured by Surface Plasmon Resonance (SPR) using a GE Healthcare BIAcore 4000 instrument as follows. Goat anti-human Fc antibody (Jackson ImmunoResearch Laboratories #109-005-098) was first immobilized on BIAcore carboxymethylated dextran CM5 chip using direct coupling to free amino groups following the procedure described by the manufacturer. Antibodies were then captured on the CM5 biosensor chip to achieve approximately 200 response units (RU). Binding measurements were performed using the running HBS-EP+ buffer. A 2-fold dilution series of His-tagged FGFR1 proteins were injected at a flow rate of 30 μl/min at 25° C. Association rates (kₒₙ, per mol/s) and dissociation rates (koff, per s) were calculated using a simple 1:1 Langmuir binding model (Biacore 4000 Evaluation Software). The equilibrium dissociation constant (KD, mol) was calculated as the ratio of koff/kₒₙ.
(§2) The affinities to human FGFR1b-IIIb for the affinity matured clones reformatted as IgG and monovalent SEEDbodies were measured by BIAcore (using a protocol similar to the one described in Example 1.8) and compared to those of mAb #08 (Table 5).

[2] = biological target: T2, human FGFR1b-IIIc extracellular domain with a HIS tag (human, UniProt P11362 22-376); test: ELISA, EC50 from OD450 curves, monovalent SEEDbody format
T2 construct: also called huFGFR1b-IIIc; hFGFR1b-IIIc
T2 sequence: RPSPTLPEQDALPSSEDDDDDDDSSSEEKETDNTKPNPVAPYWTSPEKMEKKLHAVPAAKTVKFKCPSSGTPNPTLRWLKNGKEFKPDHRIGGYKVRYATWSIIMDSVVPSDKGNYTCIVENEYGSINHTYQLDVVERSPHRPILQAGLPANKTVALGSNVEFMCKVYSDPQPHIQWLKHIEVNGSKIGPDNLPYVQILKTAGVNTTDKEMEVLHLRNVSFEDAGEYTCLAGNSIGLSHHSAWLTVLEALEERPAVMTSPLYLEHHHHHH
Description: (§3) The binding selectivity of the antibodies were tested by ELISA against the different FGFR family members: FGFR1, FGFR2, FGFR3 and FGFR4. Briefly plates were coated overnight with the different His6-tagged FGFR proteins, after blocking with 1% Bovine Serum albumin, 1 or 0.1 μg/ml of anti-FGFR1 antibodies were incubated for 1 h at room temperature. After washing, the bound antibodies were incubated for 1 h at room temperature with a peroxidase affiniPure F(ab′)2 Fragment goat anti-human Fc (Jackson ImmunoResearch Laboratories #109-036-098) and detection was performed using the TMB HRP Substrate solution (BioFx Lab # TMBW-1000-01).
(§4) The antibody #A08 both as an IgG1 (bivalent) and as a SEEDbody (monovalent), was affinity matured using the yeast display technology described in (Rhiel et al. 2014) and performing light chain shuffling from immunized OmniRats and naïve human library followed by CDR-H3 parsimonious mutagenesis. Following several sorting rounds, yeast clones were picked, unique clones were reformatted as described in Examples 1.6 and 3.1. The binding affinities of the anti-FGFR1 molecules against human FGFR1b-IIIb) and human FGFR1b-IIIc) were measured by ELISA using a similar protocol as described in Example 1.9. The OD450 was plotted against the antibody concentration and GraphPad Prism software was used to calculate EC₅₀ values (see FIG. 10). […] The best results were obtained with mAb #A02 and #C01 showing an EC50 improvement in both IgG1 and SEEDbody formats.

[3] = biological target: T1, human FGFR1b-IIIb extracellular domain …; test: as above
Description: as §3, §4

[4] = biological target: T2, human FGFR1b-IIIc extracellular domain …; test: ELISA, EC50 from OD450 curves, IgG1 format
Description: as §3
The antibody #A08 both as an IgG1 (bivalent) and as a SEEDbody (monovalent), was affinity matured using the yeast display technology described in (Rhiel et al. 2014) and performing light chain shuffling from immunized OmniRats and naïve human library followed by CDR-H3 parsimonious mutagenesis. Following several sorting rounds, yeast clones were picked, unique clones were reformatted as described in Examples 1.6 and 3.1. The binding affinities of the anti-FGFR1 molecules against human FGFR1b-IIIb) and human FGFR1b-IIIc) were measured by ELISA using a similar protocol as described in Example 1.9. The OD450 was plotted against the antibody concentration and GraphPad Prism software was used to calculate EC₅₀ values (see FIG. 10). […]

[5] = biological target: T1, human FGFR1b-IIIb extracellular domain …; test: SPR (BIAcore), IgG1 format; target IIIb by paragraph 74 and paragraph 125, the table's title says IIIc
Description: as §1, §2

FGFR1 on NCI-H520 cells = FGFR1 on NCI-H520 cells (human, UniProt P11362 22-822); test: cell-based or functional assay
FGFR1 on NCI-H520 cells, sequence (P11362 22-822): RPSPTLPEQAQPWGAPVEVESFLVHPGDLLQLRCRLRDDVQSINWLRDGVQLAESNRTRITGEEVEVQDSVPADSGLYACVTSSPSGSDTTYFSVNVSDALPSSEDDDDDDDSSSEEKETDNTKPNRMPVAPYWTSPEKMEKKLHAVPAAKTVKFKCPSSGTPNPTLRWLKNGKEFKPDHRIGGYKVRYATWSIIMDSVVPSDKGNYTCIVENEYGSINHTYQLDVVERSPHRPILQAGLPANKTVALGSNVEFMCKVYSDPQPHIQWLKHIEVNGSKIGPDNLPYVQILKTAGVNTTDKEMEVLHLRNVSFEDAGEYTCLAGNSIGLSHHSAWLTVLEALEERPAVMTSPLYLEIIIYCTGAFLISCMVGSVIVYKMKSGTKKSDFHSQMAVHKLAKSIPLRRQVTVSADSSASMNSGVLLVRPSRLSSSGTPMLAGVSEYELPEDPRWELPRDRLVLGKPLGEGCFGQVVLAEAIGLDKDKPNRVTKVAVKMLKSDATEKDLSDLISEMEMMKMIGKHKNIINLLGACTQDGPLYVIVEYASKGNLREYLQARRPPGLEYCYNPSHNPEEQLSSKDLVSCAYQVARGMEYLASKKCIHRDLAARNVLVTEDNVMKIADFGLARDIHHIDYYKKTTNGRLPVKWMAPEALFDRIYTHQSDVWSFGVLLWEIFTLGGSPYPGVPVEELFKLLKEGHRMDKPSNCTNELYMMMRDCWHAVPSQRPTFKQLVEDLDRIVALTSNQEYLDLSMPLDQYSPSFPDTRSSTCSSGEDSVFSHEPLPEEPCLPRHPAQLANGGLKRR

[6] = biological target: T1, human FGFR1b-IIIb extracellular domain …; test: SPR (BIAcore), IgG1 format; target IIIb by paragraph 74 and paragraph 125, the table's title says IIIc; IgG1 (bivalent), not SEEDbody
Description: as §1, §2

Kd [1]: 0.05 nM
binding result [2]: binds
B1: #D01 SEEDbody (monovalent) (antibody)
heavy: QVQLQESGPGLVKPSGTLSLTCAVSGGSISSNNWWSWVRQPPGKGLEWIGEIYHSGSTSYNPSLKSRVTISVDKSKNQFSLKLSSVTAADTAVYYCARATDWFDHWGQGTLVTVSSASTKGPSVFPLAPSSKSTSGGTAALGCLVKDYFPEPVTVSWNSGALTSGVHTFPAVLQSSGLYSLSSVVTVPSSSLGTQTYICNVNHKPSNTKVDKRVEPKSCDKTHTCPPCPAPELLGGPSVFLFPPKPKDTLMISRTPEVTCVVVDVSHEDPEVKFNWYVDGVEVHNAKTKPREEQYNSTYRVVSVLTVLHQDWLNGKEYKCKVSNKALPAPIEKTISKAKGQPFRPEVHLLPPSREEMTKNQVSLTCLARGFYPKDIAVEWESNGQPENNYKTTPSRQEPSQGTTTFAVTSKLTVDKSRWQQGNVFSCSVMHEALHNHYTQKTISLSPG
chain: EPKSSDKTHTCPPCPAPELLGGPSVFLFPPKPKDTLMISRTPEVTCVVVDVSHEDPEVKFNWYVDGVEVHNAKTKPREEQYNSTYRVVSVLTVLHQDWLNGKEYKCKVSNKALPAPIEKTISKAKGQPREPQVYTLPPPSEELALNELVTLTCLVKGFYPSDIAVEWLQGSQELPREKYLTWAPVLDSDGSFFLYSILRVAAEDWKKGDTFSCSVMHEALHNHYTQKSLDRSPG
light: SYVLTQPPSVSVAPGQTARITCGGNNIGSESVHWYQQKPGQAPVLVVYDDSDRPSGIPERFSGSNSGNTATLTISRVEAGDEADYYCQVWDSTSDHRVFGGGTKLTVLGQPKAAPSVTLFPPSSEELQANKATLVCLISDFYPGAVTVAWKADSSPVKAGVETTTPSKQSNNKYAASSYLSLTPEQWKSHKSYSCQVTHEGSTVEKTVAPTECS
notes: also called #D01-SEED(AG)

binding result [3]: binds
binding result [2]: binds
B2: #G04 SEEDbody (monovalent) (antibody)
heavy: B1 heavy with A99G, F103Y, H105L
chain: B1 chain
light: B1 light
notes: also called #G04-SEED(AG)

Kd [1]: 0.04 nM
binding result [2]: binds
B3: SEEDbody #A07 (monovalent) (antibody)
heavy: B1 heavy with A99G, F103Y, H105P
chain: B1 chain
light: B1 light
notes: also called #A07-SEED(AG)

binding result [3]: binds
binding result [2]: binds
B4: #D02 SEEDbody (monovalent) (antibody)
heavy: B1 heavy with A99G, F103I, H105T
chain: B1 chain
light: B1 light
notes: also called #D02-SEED(AG)

binding result [4]: binds
Kd [5]: 0.05 nM
B5: mAb #A02 IgG1 (antibody, V domains shown)
VH: QVQLQESGPGLVKPSGTLSLTCAVSGGSISSNNWWSWVRQPPGKGLEWIGEIYHSGSTSYNPSLKSRVTISVDKSKNQFSLKLSSVTAADTAVYYCARATDWFDLWGQGTLVTVSS
VL: SYVLTQPPSVSVAPGQTARITCGGNNIGSESVHWYQQKPGQAPVLVVYDDSDRPSGIPERFSGSNSGNTATLTISRVEAGDEADYYCQVWDSTSDHRVFGGGTKLTVL
notes: constant regions not tied

Kd [5]: 0.06 nM
B6: #A07 IgG1 (antibody, V domains shown)
VH: B5 VH with A99G, F103Y, L105P
VL: SYVLTQPPSVSVAPGQTARITCGGNNIGSESVHWYQQKPGQAPVLVVYDDSDRPSGIPERFSGSNSGNTATLTISRVEAGDEADYYCQVWDSTSDHRVFGGGTKLTVLG
notes: heavy constant region not tied

IC50, pFGFR1 inhibition in NCI-H520 cells, FGF1, IgG1 (FGFR1 on NCI-H520 cells): 1e-09 M
IC50, pFGFR1 inhibition in NCI-H520 cells, FGF2, IgG1 (FGFR1 on NCI-H520 cells): 2e-10 M
IC50, pFGFR1 inhibition in NCI-H520 cells, non-stimulated, IgG1 (asterisk: partial response) (FGFR1 on NCI-H520 cells): 5e-08 M
Kd [6]: 0.06 nM
B7: #A08 IgG1 (standard IgG1 built from the #A08 lead heavy and light chains) (antibody, V domains shown)
VH: B5 VH with Q1E, A99G, L105P
VL: B6 VL
notes: also called #A08 lead IgG1; mAb #A08 in the IgG1 format

Kd [5]: 0.02 nM
B8: #B10 IgG1 (antibody, V domains shown)
VH: B5 VH with F103Y, L105P
VL: B6 VL
notes: as for B6

Kd [5]: 0.03 nM
B9: mAb #D01 IgG1 (antibody, V domains shown)
VH: B5 VH with L105H
VL: B6 VL
notes: as for B6

binding result [4]: binds
Kd [5]: 0.03 nM
B10: mAb #C01 IgG1 (antibody, V domains shown)
VH: B5 VH with L105A
VL: B5 VL
notes: constant regions not tied

Reference: patent US20190367620A1 (Merck KGaA, published 2019)
